The target of this experiment is phosphopeptide-ligated β2AR with a deletion of the third intracellular loop (β2ARppΔ238-267), in HDL particles (human), P07550. Briefly: cell-based or functional assay.

The text below walks through data of patent publication US20240101642A1.

B1: β-arrestin1, minimal cysteine and truncated variant of rat βarr1 (βarr1-MC-393), P29066 1-393 (protein, UniProt P29066 1-393, looked up)
chain: MGDKGTRVFKKASPNGKLTVYLGKRDFVDHIDLVDPVDGVVLVDPEYLKERRVYVTLTAAFRYGREDLDVLGLTFRKDLFVANVQSFPPAPEDKKPLTRLQERLIKKLGEHAYPFTFEIPPNLPSSVTLQPGPEDTGKAIGVDYEVKAFVAENLEEKIHKRNSVRLVIRKVQYAPERPGPQPTAETTRQFLMSDKPLHLEASLDKEIYYHGEPISVNVHVTNNTNKTVKKIKISVRQYADIVLFNTAQYKVPVAMEEADDTVAPSSTFSKVYTLTPFLANNREKRGLALDGKLKHEDTNLASSTLLREGANREILGIIVSYKVKVKLVVSRGGLLGDLASSDVAVELPFTLMHPKPKEEPPHREVPESETPVDTNLIELDTNDDDIVFEDFAR
Consider B1, for which the fold increase of agonist affinity by the transducer was 10 fold and the log IC50 of isoproterenol (ISO), competition radioligand binding, in the presence of βarr1 (no transducer: -6.91+/-0.04) is -7.63 log.
